Assay results as given in IntAct's records for PubMed 15009215.

B1: Emerin (Homo sapiens), P50402 (parent)
chain: MDNYADLSDTELTTLLRRYNIPHGPVVGSTRRLYEKKIFEYETQRRRLSPPSSSAASSYSFSDLNSTRGDADMYDLPKKEDALLYQSKGYNDDYYEESYFTTRTYGEPESAGPSRAVRQSVTSFPDADAFHHQVHDDDLLSSSEEECKDRERPMYGRDSAYQSITHYRPVSASRSSLDLSYYPTSSSTSFMSSSSSSSSWLTRRAIRPENRAPGAGLGQDRQVPLWGQLLLFLVFVIVLFFIYHFMQAEEGNPF

Variants of: B1
Conditions: with bclf1_human BCLAF1, Q9NYF8
Chain of bclf1_human BCLAF1, Q9NYF8 (Q9NYF8 whole entry): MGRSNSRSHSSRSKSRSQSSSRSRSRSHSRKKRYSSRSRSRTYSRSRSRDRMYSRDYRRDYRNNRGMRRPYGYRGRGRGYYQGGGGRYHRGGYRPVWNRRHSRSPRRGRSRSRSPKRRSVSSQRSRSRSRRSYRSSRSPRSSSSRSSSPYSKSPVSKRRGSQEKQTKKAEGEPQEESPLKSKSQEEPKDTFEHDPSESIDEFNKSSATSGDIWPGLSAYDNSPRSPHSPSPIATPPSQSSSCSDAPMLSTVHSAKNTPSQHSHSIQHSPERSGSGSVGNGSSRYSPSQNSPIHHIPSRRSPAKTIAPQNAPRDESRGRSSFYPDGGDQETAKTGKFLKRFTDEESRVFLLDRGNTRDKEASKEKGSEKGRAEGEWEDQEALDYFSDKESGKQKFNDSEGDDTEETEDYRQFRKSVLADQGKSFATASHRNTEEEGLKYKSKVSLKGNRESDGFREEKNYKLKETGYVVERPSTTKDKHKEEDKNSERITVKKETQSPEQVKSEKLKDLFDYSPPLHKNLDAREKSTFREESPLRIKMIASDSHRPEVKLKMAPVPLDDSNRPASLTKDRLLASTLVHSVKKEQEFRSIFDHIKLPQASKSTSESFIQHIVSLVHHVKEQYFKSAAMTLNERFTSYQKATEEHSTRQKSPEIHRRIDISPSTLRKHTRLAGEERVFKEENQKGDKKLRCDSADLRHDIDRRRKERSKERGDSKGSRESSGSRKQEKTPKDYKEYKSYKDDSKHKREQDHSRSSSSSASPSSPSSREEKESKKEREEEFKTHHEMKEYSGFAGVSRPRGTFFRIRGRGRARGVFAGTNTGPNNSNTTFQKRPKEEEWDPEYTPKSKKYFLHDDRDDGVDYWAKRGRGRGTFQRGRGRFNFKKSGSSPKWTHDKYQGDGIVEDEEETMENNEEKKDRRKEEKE

Variant	effect of a mutation on the interaction
S54F	decreasing interaction
G214A;L217A	decreasing interaction
R207A;P208A	decreasing interaction
L76A;K78A;E80A;L83A	decreasing interaction
D70A;D72A;Y74A	decreasing interaction
I206A;R207A;E209A	decreasing interaction

Now from value to variant:

effect of a mutation on the interaction	Variant
decreasing interaction	R45A;R46A;R47A
decreasing interaction	S192A;S194A;S195A;S196A
decreasing interaction	S175A;S176A
decreasing interaction	S197A;S198A
